From article PMC10786891, “Massively parallel profiling of RNA-targeting CRISPR-Cas13d”

T1: EsCas13d, nuclease-dead (Eubacterium siraeum, UniProt B0MS50, R295A;H300A;R849A;H854A)
T1 sequence: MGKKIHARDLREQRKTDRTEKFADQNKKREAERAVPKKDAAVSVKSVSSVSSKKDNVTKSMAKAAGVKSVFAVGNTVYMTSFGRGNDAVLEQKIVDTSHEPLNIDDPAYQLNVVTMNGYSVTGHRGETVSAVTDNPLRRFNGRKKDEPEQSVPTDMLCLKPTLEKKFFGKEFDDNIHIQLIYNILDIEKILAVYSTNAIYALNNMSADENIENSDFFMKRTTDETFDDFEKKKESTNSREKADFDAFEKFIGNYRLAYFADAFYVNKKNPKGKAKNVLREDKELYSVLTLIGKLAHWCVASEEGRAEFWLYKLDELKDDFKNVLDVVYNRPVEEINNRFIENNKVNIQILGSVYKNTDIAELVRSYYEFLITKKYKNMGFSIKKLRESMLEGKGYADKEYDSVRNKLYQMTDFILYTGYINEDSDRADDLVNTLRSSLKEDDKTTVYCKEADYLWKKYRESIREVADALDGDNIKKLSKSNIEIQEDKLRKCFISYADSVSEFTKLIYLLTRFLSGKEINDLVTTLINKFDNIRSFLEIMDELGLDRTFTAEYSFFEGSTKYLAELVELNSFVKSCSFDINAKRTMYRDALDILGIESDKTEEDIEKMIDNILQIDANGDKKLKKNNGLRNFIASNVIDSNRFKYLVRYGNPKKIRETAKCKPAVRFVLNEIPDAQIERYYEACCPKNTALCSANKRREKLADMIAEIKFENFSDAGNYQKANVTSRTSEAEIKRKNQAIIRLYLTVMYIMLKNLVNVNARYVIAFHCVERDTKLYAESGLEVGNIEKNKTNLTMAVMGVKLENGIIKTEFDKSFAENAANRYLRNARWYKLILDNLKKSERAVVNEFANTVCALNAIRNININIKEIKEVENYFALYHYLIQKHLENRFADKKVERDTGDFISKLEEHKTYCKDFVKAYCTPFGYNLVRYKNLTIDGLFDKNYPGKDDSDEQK


biological target: T1, EsCas13d, nuclease-dead; experiment: crRNA (strand 1, pre-loaded); Mg2+; 40 mM Tris-HCl pH 7.5, 150 mM NaCl, 6 mM MgCl2, 1 mM DTT, 0.1% Tween-20, 0.2 mg/ml BSA; 25 C; 10 min per concentration, then washed; settings: tags: His6-TwinStrep-SUMO cleaved; N-terminal SNAP kept (SNAP-Surface 488); label: 3' end held by stalled T7 RNA polymerase

Binder	Kd [nM]
target 1 MT 5'PFS GUU 3'PFS CUU (mixed) RNA 1: CACCCGUGCAAAAAUGCAGGGGUCUAAAACUGAGCGGAUAACCUCUCUAUGG RNA 2: GGGAAUGGAUCCACAUCUACGAAUUCGUUCCAUAGAGAGGUUAUCCGCUCACUUAGAUCGGAAGAGCACACGU	16.4 ± 3.1
target 1 MT 5'PFS UAA 3'PFS UCG (mixed) RNA 1: CACCCGUGCAAAAAUGCAGGGGUCUAAAACUGAGCGGAUAACCUCUCUAUGG RNA 2: GGGAAUGGAUCCACAUCUACGAAUUCUAACCAUAGAGAGGUUAUCCGCUCAUCGAGAUCGGAAGAGCACACGU	23 ± 6.5
target 1 MT 5'PFS AGG 3'PFS UUC (mixed) RNA 1: CACCCGUGCAAAAAUGCAGGGGUCUAAAACUGAGCGGAUAACCUCUCUAUGG RNA 2: GGGAAUGGAUCCACAUCUACGAAUUCAGGCCAUAGAGAGGUUAUCCGCUCAUUCAGAUCGGAAGAGCACACGU	33 ± 11
target 1 MT 5'PFS GUG 3'PFS AAG (mixed) RNA 1: CACCCGUGCAAAAAUGCAGGGGUCUAAAACUGAGCGGAUAACCUCUCUAUGG RNA 2: GGGAAUGGAUCCACAUCUACGAAUUCGUGCCAUAGAGAGGUUAUCCGCUCAAAGAGAUCGGAAGAGCACACGU	23.1 ± 1.45
target 1 MT 5'PFS GUG 3'PFS AAC (mixed) RNA 1: CACCCGUGCAAAAAUGCAGGGGUCUAAAACUGAGCGGAUAACCUCUCUAUGG RNA 2: GGGAAUGGAUCCACAUCUACGAAUUCGUGCCAUAGAGAGGUUAUCCGCUCAAACAGAUCGGAAGAGCACACGU	23.9 ± 2.9
target 1 MT 5'PFS CAG 3'PFS CGU (mixed) RNA 1: CACCCGUGCAAAAAUGCAGGGGUCUAAAACUGAGCGGAUAACCUCUCUAUGG RNA 2: GGGAAUGGAUCCACAUCUACGAAUUCCAGCCAUAGAGAGGUUAUCCGCUCACGUAGAUCGGAAGAGCACACGU	29.5 ± 10
target 1 G15C,A16U (mixed) RNA 1: CACCCGUGCAAAAAUGCAGGGGUCUAAAACUGAGCGGAUAACCUCUCUAUGG RNA 2: GGGAAUGGAUCCACAUCUACGAAUUCGUACCAUAGUCAGGUUAUCCGCUCACCGAGAUCGGAAGAGCACACGU	47 ± 4
target 1 MT 5'PFS GGA 3'PFS CUA (mixed) RNA 1: CACCCGUGCAAAAAUGCAGGGGUCUAAAACUGAGCGGAUAACCUCUCUAUGG RNA 2: GGGAAUGGAUCCACAUCUACGAAUUCGGACCAUAGAGAGGUUAUCCGCUCACUAAGAUCGGAAGAGCACACGU	27 ± 6.5
target 1 MT 5'PFS CCU 3'PFS AAU (mixed) RNA 1: CACCCGUGCAAAAAUGCAGGGGUCUAAAACUGAGCGGAUAACCUCUCUAUGG RNA 2: GGGAAUGGAUCCACAUCUACGAAUUCCCUCCAUAGAGAGGUUAUCCGCUCAAAUAGAUCGGAAGAGCACACGU	16.7 ± 4.65
target 1 MT 5'PFS GUG 3'PFS AAU (mixed) RNA 1: CACCCGUGCAAAAAUGCAGGGGUCUAAAACUGAGCGGAUAACCUCUCUAUGG RNA 2: GGGAAUGGAUCCACAUCUACGAAUUCGUGCCAUAGAGAGGUUAUCCGCUCAAAUAGAUCGGAAGAGCACACGU	22.1 ± 1.75
target 1 MT 5'PFS CAU 3'PFS CUU (mixed) RNA 1: CACCCGUGCAAAAAUGCAGGGGUCUAAAACUGAGCGGAUAACCUCUCUAUGG RNA 2: GGGAAUGGAUCCACAUCUACGAAUUCCAUCCAUAGAGAGGUUAUCCGCUCACUUAGAUCGGAAGAGCACACGU	~48.5
target 1 MT 5'PFS GUG 3'PFS AAA (mixed) RNA 1: CACCCGUGCAAAAAUGCAGGGGUCUAAAACUGAGCGGAUAACCUCUCUAUGG RNA 2: GGGAAUGGAUCCACAUCUACGAAUUCGUGCCAUAGAGAGGUUAUCCGCUCAAAAAGAUCGGAAGAGCACACGU	30.3 ± 2.5
target 1 MT 5'PFS GGA 3'PFS CUC (mixed) RNA 1: CACCCGUGCAAAAAUGCAGGGGUCUAAAACUGAGCGGAUAACCUCUCUAUGG RNA 2: GGGAAUGGAUCCACAUCUACGAAUUCGGACCAUAGAGAGGUUAUCCGCUCACUCAGAUCGGAAGAGCACACGU	47 ± 17.5
